Laboratory results taken from EP4700044A1, “PROTEIN ANALOGUE AND USE THEREOF” (Shanghai Duomirui Biotechnology., Ltd., priority 2023, dated 2024).
Residue numbers refer to the chain shown, from its start. Values belong to the molecule of their own block, whether it stands above or below them.

How the values were obtained:
[1] = target: T1, FGFR1c and the cofactor β-Klotho (Homo sapiens, UniProt P11362+Q86Z14); experiment: dual-luciferase reporter gene assay in iLite FGF21 assay ready cells; type: cell-based; settings: Example 6, four-parameter fitting
T1 construct: host or cells: iLite FGF21 assay ready cells (genetically engineered reporter gene cell line)
T1 sequence (P11362 22-822): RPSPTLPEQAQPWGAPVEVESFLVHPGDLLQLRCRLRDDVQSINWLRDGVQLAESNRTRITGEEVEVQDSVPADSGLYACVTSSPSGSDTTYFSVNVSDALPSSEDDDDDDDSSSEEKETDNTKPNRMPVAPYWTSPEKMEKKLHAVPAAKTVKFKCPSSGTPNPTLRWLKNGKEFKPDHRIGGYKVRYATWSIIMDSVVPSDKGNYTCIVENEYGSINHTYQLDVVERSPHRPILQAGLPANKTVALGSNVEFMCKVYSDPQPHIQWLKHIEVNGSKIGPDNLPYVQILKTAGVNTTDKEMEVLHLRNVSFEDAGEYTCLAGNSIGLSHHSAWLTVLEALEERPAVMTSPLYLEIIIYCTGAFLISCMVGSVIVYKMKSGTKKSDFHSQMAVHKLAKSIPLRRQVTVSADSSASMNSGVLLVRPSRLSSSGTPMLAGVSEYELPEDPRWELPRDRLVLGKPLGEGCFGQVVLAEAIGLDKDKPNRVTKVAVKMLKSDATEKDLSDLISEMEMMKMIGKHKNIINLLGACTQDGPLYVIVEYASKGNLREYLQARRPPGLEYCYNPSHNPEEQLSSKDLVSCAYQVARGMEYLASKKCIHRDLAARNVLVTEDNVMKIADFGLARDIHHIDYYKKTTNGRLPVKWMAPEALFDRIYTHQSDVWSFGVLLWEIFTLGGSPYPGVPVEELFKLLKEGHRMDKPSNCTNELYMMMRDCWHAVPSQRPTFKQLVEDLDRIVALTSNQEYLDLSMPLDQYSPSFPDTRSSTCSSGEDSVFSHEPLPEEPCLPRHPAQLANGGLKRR
T1 sequence (Q86Z14 whole entry): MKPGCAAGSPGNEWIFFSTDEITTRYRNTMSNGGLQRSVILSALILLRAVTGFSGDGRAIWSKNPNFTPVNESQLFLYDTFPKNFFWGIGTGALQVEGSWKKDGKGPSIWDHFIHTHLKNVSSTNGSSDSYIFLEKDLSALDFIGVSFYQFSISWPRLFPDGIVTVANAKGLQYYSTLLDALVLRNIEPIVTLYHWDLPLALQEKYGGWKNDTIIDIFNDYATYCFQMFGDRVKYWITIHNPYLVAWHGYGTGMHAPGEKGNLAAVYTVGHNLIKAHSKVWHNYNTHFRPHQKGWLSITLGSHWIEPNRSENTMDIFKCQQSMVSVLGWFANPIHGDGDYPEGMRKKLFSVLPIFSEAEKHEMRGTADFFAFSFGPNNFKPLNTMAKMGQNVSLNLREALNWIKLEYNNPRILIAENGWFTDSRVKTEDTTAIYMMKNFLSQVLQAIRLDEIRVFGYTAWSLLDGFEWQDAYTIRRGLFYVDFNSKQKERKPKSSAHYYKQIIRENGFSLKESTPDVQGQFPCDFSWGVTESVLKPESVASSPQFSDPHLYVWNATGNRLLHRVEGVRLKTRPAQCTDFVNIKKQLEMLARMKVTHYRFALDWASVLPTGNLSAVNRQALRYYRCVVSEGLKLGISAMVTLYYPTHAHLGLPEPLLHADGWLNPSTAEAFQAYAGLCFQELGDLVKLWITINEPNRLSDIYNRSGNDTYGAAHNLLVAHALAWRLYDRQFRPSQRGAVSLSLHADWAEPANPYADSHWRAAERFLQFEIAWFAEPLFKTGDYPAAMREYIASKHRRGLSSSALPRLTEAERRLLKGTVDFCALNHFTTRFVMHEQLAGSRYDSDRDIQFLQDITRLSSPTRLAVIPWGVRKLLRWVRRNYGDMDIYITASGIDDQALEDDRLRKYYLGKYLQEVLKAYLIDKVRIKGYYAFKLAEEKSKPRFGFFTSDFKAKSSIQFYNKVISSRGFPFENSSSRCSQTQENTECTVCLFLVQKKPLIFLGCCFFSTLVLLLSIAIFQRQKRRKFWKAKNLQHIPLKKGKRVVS
Excerpt: iLite FGF21 assay ready cells (purchased from SAVR) is a genetically engineered reporter gene cell line that responds to signals downstream to FGF21 agonism through the expression of firefly luciferase. The receptor FGFR1c and the cofactor β-Klotho were co-overexpressed on the surface of iLite FGF21 assay ready cells and have undergone genetic optimization to enhance sensitivity, such that FGF21 will cause an increase in luciferase expression in a dose-response manner. The luciferase activity detection kit was purchased from Promega (catalog number #E2980).
iLite FGF21 assay ready cells were cultured adherently in basal medium (DMEM Gluta Max, purchased from Gibco) containing 10% fetal bovine serum (FBS, purchased from Gibco) and 1% penicillin/streptomycin (purchased from Gibco). For the activity determination experiment, […] cells per well and test samples such as FGF21 mutant proteins and FGF21 conjugate molecules modified with albumin-binding agent were added to all-white 96-well culture plates (purchased from Corning), and the chemiluminescence values were detected in a microplate reader according to the instructions of the luciferase activity detection kit. Finally, the half-maximal effective concentration (EC50) values of the tested samples were obtained by means of four-parameter fitting.

[2] = pharmacokinetic test in mice; type: in vivo; settings: 1 mg/kg, subcutaneous injection, plasma, human FGF21 ELISA
Description: The pharmacokinetic properties of protein analogs can be tested in mice or minpigs.
Mice experiment (N = 3): The injection dose was 1 mg/kg, and the injection method was subcutaneous injection. The blood-collection time points for plasma samples were 0.08, 0.25, 0.5, 1, 2, 4, 6, 8, 12, 24, 48, and 72 hours. The blood was collected into EDTA·2K-coated test tubes (which must be temporarily stored on ice) and centrifuged at 1200 × g for 10 minutes at 4°C. Subsequently, the plasma was transferred to Micronic tubes and stored at -20°C. The human FGF21 detection ELISA kit (RD191108200R) produced by Biovendor was used to monitor the blood drug concentration.

EC50 [1]: 1.06 nM
B1: Compound 5.7: FGF21D46C mutant (SEQ NO: 7) modified by the albumin-binding agent of Example 2.2 (conjugate)
chain: HPIPDSSPLLQFGGQVRQRYLYTDDAQQTEAHLEIREDGTVGGAACQSPESLLQLKALKPGVIQILGVKTSRFLCQRPDGALYGSLHFDPEACSFRERLLEDGYNVYQSEAHGLPLHLPGNKSPHRDPAPRGPARFLPLPGLPPAPPEPPGILAPQPPDVGSSDPLSMVGGSQGRSPSYES
modifications: albumin-binding agent conjugated
half-life [2]: 15.9 h

EC50 [1]: 0.47 nM
B2: Compound 5.15: FGF21H125C mutant (SEQ NO: 9) modified by the albumin-binding agent of Example 2.4 (conjugate)
chain: B1 chain with C46D, H125C
modifications: albumin-binding agent of Example 2.4
half-life [2]: 14.1 h
